Reference: patent publication US7119077B1, “Multimeric forms of members of the steroid/thyroid superfamily of receptors with the ultraspiracle receptor” (The Salk Institute for Biological Studies, priority 1990, dated 2006)

Biological target: T1, usp/PPAR heterodimer (Drosophila melanogaster / Rattus …, UniProt P20153;P37230 P20153:1-508,P37230:1-468)
T1 sequence 1: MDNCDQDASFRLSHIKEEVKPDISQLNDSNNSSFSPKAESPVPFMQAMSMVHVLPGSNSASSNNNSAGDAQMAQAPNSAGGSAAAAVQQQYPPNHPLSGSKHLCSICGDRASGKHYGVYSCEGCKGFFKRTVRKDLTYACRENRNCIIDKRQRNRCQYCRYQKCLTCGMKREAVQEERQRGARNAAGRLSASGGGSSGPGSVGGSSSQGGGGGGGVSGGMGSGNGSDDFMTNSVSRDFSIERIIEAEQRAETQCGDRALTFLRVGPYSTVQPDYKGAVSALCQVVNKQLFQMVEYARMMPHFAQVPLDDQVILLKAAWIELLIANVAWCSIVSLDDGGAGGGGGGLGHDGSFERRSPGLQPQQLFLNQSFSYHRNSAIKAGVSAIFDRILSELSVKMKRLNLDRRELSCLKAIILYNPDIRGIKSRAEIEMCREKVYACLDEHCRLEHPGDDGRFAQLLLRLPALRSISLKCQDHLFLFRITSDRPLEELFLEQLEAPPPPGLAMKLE
T1 sequence 2: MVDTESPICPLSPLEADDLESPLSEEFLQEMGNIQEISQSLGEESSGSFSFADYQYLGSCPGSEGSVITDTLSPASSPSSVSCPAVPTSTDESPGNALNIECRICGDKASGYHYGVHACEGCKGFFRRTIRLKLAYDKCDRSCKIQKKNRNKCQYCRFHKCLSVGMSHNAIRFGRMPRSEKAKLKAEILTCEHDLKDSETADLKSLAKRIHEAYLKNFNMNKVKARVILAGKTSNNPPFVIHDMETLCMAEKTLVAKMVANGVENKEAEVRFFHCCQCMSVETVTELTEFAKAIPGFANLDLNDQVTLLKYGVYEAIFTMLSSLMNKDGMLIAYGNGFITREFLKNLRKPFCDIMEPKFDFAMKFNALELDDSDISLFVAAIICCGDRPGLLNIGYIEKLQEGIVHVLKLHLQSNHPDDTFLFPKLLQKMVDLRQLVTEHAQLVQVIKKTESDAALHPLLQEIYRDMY
Assay: EMSA; high affinity; usp antibody supershift
Conditions: label: 32P
Description: For gel mobility shift assay, proteins were incubated with binding buffer, which contained 100 mM KCl, 7.5% glycerol, 20 mM HEPES pH 7.5, 2 mM DTT and 0.1% NP-40, on ice for 20 minutes in the presence of 2 μg of nonspecific competitor poly dI-dC and other oligo competitors. Then approximately 1 ng of ^32P-dCTP probe, which was labelled to specific activity about 1-5×10^8 cpm/μg by fill-in reaction with Klenow fragments, was added to the reaction and incubated at room temperature for 20 minutes. Antiserum or preimmune serum was added 10 minutes after the probe was added. The reaction was then loaded into 5% non-denaturing polyacrylamide gel in 0.5×TBE running buffer [1×TBE comprises 0.089 M Tris borate, 0.089 M boric acid and 0.002 M EDTA]. After electrophoresis, the gel was dried for autoradiography.
Using in vitro translated usp protein, interaction of usp with three mammalian nuclear receptors (TRβ, VDR and PPAR) was tested in gel mobility shift assays with the appropriate response element for each of the three receptors as the probes.

B1: AOX-PPARE (DR1) (dsDNA)
DNA 1: AGGACAAAGGTCA
DNA 2: TGACCTTTGTCCT
B1: binds.
